Test results: publication PMC4732765, “Long-Term Persistence of Bi-functionality Contributes to the Robustness of Microbial Life through Exaptation” (PLoS Genetics, 2016)

What was measured:
Assay in all cases: purified protein
purified protein [1] = substrate: NC(=O)c1ncn([C@@H]2O[C@H](COP(=O)(O)O)[C@@H](O)[C@H]2O)c1N=CN[C@@H]1O[C@H](COP(=O)(O)O)[C@@H](O)[C@H]1O; type: biochemical, Desulfovibrio desulfuricans; details: 25 °C, HisA reaction
purified protein [2] = substrate: O=C(O)c1ccccc1N[C@@H]1O[C@H](COP(=O)(O)O)[C@@H](O)[C@H]1O; type: biochemical, Desulfovibrio desulfuricans; details: 25 °C, TrpF reaction, PRA generated in situ from anthranilate and excess PRPP with yeast anthranilate phosphoribosyl transferase
purified protein [3] = substrate: NC(=O)c1ncn([C@@H]2O[C@H](COP(=O)(O)O)[C@@H](O)[C@H]2O)c1N=CN[C@@H]1O[C@H](COP(=O)(O)O)[C@@H](O)[C@H]1O; type: biochemical, Syntrophotalea carbinolica; details: 25 °C, HisA reaction
purified protein [4] = substrate: O=C(O)c1ccccc1N[C@@H]1O[C@H](COP(=O)(O)O)[C@@H](O)[C@H]1O; type: biochemical, Syntrophotalea carbinolica; details: 25 °C, TrpF reaction, PRA generated in situ from anthranilate and excess PRPP with yeast anthranilate phosphoribosyl transferase
purified protein [5] = substrate: NC(=O)c1ncn([C@@H]2O[C@H](COP(=O)(O)O)[C@@H](O)[C@H]2O)c1N=CN[C@@H]1O[C@H](COP(=O)(O)O)[C@@H](O)[C@H]1O; type: biochemical, Thermotoga maritima; details: 25 °C, HisA reaction
purified protein [6] = substrate: O=C(O)c1ccccc1N[C@@H]1O[C@H](COP(=O)(O)O)[C@@H](O)[C@H]1O; type: biochemical, Thermotoga maritima; details: 25 °C, TrpF reaction, PRA generated in situ from anthranilate and excess PRPP with yeast anthranilate phosphoribosyl transferase
purified protein [7] = substrate: NC(=O)c1ncn([C@@H]2O[C@H](COP(=O)(O)O)[C@@H](O)[C@H]2O)c1N=CN[C@@H]1O[C@H](COP(=O)(O)O)[C@@H](O)[C@H]1O; type: biochemical, synthetic construct; details: 25 °C, HisA reaction, enzyme shows hysteresis
purified protein [8] = substrate: O=C(O)c1ccccc1N[C@@H]1O[C@H](COP(=O)(O)O)[C@@H](O)[C@H]1O; type: biochemical, synthetic construct; details: 25 °C, TrpF reaction, PRA generated in situ from anthranilate and excess PRPP with yeast anthranilate phosphoribosyl transferase, enzyme shows hysteresis

B1: ddHisA (Desulfovibrio desulfuricans ATCC 27774) (protein)
chain: MIIFPAVDIQNGKAVRLKQGRAHESTVFAESPVDAARAWEEAGARWLHVVDLDGAFDGAAQSRRIVRDICAALAIPVQLGGGIRDMHTAEAYLEAGVSRLIIGTLALEQPTLFADMCRAFPGRVGVSLDAEGGRLKSRGWVEDTGMTVDTALPRLLDDGAAFVIYTDIERDGMQCGVNVAALEHLARLSTVPVIAAGGVATLEDIQKLYPLTLETSLMGAVSGRALYEGTLDLKEANAWIDARKNTPESA
notes: full-length hisA in pET24a (NdeI/XhoI), His-tag (HisTrap), E. coli T7 Express with pRARE
Work on B1 yielded a Km (purified protein [1]) of 2.8 µM, a kcat (purified protein [1]) of 1.3 s⁻¹ and a kcat/Km (purified protein [1]) of 460000 M⁻¹ s⁻¹. The Km (purified protein [2]) was 161 µM, the kcat (purified protein [2]) was 0.0023 s⁻¹ and the kcat/Km (purified protein [2]) was 14 M⁻¹ s⁻¹.

B2: pcHisA (Syntrophotalea carbinolica DSM 2380) (protein)
chain: MIVIPAIDLKEGRCVRLEQGLMEKDTVYNDNPGAQARSWQEQGGELLHIVDLDGAFAGVPRNRDAIRAIAEAVSIPTELGGGIRDLPTIEAYLELGIDRVILGTVAKENPELVREACRLFPGRIVVGIDARDGLVAVRGWADVTEKLATELAKEMEGFGVEAIIYTDIARDGMMGGPNLEATRALAESISVPVIASGGVSCLEDIARLMTIEDSGVTGVITGKALYTGSLDLREAVALTKGKA
notes: as for B1
B2 showed a Km (purified protein [3]) of 1.8 µM, a kcat (purified protein [3]) of 0.4 s⁻¹ and a kcat/Km (purified protein [3]) of 220000 M⁻¹ s⁻¹. The Km (purified protein [4]) was 303 µM, the kcat (purified protein [4]) was 0.001 s⁻¹ and the kcat/Km (purified protein [4]) was 3 M⁻¹ s⁻¹.

B3: tmHisA (Thermotoga maritima MSB8) (protein)
chain: MLVVPAIDLFRGKVARMIKGRKENTIFYEKDPVELVEKLIEEGFTLIHVVDLSNAIENSGENLPVLEKLSEFAEHIQIGGGIRSLDYAEKLRKLGYRRQIVSSKVLEDPSFLKSLREIDVEPVFSLDTRGGRVAFKGWLAEEEIDPVSLLKRLKEYGLEEIVHTEIEKDGTLQEHDFSLTKKIAIEAEVKVLAAGGISSENSLKTAQKVHTETNGLLKGVIVGRAFLEGILTVEVMKRYAR
notes: full-length hisA in pET21a (NdeI/NotI), His-tag (HisTrap), E. coli BL21-CodonPlus-(DE3)-RIPL; heat step 70 °C
Protein B3 has a Km (purified protein [5]) of 5.6 µM, a kcat (purified protein [5]) of 1 s⁻¹ and a kcat/Km (purified protein [5]) of 180000 M⁻¹ s⁻¹. The Km (purified protein [6]) was 60 µM.

B4: CA-Bact-HisA (synthetic construct) (protein)
chain: MRIIPAIDLKDGRCVRLVQGDMEKATVYNDDPLEMAKQWVEQGAEWLHVVDLDGAFAGKPVNEDVIKEIAQKVSVKVQLGGGIRDLEDIEAYLDAGVDRVIIGTVAVKNPELVREMVEKYGERIVVGIDARDGMVAVKGWKETTEVKATDLAKRFEDAGVEAIIYTDIARDGMMQGPNIEAIRELAKAVSLPVIASGGVSSLEDIEALLAIEESGVAGVIVGKALYEGRLDLREALALAKKL
notes: synthetic gene in pET24a, His-tag (HisTrap), E. coli BL21-Gold (DE3)
Work on B4 yielded a Km (purified protein [7]) of 0.5 µM, a kcat (purified protein [7]) of 0.05 s⁻¹ and a kcat/Km (purified protein [7]) of 100000 M⁻¹ s⁻¹. It also gave a Km (purified protein [8]) of 3.2 µM, a kcat (purified protein [8]) of 0.00023 s⁻¹ and a kcat/Km (purified protein [8]) of 70 M⁻¹ s⁻¹.
